Experiments:
crystal structure = molecular target: the molecule itself; test: crystal structure
AUC + SEC = molecular target: the molecule itself; test: AUC + SEC
AUC = molecular target: the molecule itself; test: AUC

Protein	binding result (crystal structure)	koff (AUC + SEC) [s⁻¹]	Kd (AUC) [nM]	stoichiometry N (AUC)
mouse Kirrel2 D1 (domain or fragment) PHFLQQPEDMVVLLGEEARLPCALGAYRGLVQWTKDGLALGGERDLPGWSRYWISGNSASGQHDLHIKPVELEDEASYECQASQAGLRSRPAQLHVMVP	binds	–	–	–
mouse Kirrel2 WT ectodomain (domain or fragment, UniProt Q7TSU7 20-507, looked up) SPHFLQQPEDMVVLLGEEARLPCALGAYRGLVQWTKDGLALGGERDLPGWSRYWISGNSASGQHDLHIKPVELEDEASYECQASQAGLRSRPAQLHVMVPPEAPQVLGGPSVSLVAGVPGNLTCRSRGDSRPAPELLWFRDGIRLDGSSFHQTTLKDKATGTVENTLFLTPSSHDDGATLICRARSQALPTGRDTAVTLSLQYPPMVTLSAEPQTVQEGEKVTFLCQATAQPPVTGYRWAKGGSPVLGARGPRLEVVADATFLTEPVSCEVSNAVGSANRSTALEVLYGPILQAKPKSVSVDVGKDASFSCVWRGNPLPRITWTRMGGSQVLSSGPTLRLPSVALEDAGDYVCRAEPRRTGLGGGKAQARLTVNAPPVVTALQPAPAFLRGPARLQCVVFASPAPDSVVWSWDEGFLEAGSLGRFLVEAFPAPEVEGGQGPGLISVLHISGTQESDFTTGFNCSARNRLGEGRVQIHLGRRDLLPTVR	–	> 0.001	900	2
mouse Kirrel3 WT ectodomain (domain or fragment, UniProt Q8BR86 22-535, looked up) LQKRGCCLVLGYMAKDKFRRMNEGQVYSFSQQPQDQVVVSGQPVTLLCAIPEYDGFVLWIKDGLALGVGRDLSSYPQYLVVGNHLSGEHHLKILRAELQDDAVYECQAIQAAIRSRPARLTVLVPPDDPIILGGPVISLRAGDPLNLTCHADNAKPAASIIWLRKGEVINGATYSKTLLRDGKRESIVSTLFISPGDVENGQSIVCRATNKAIPGGKETSVTIDIQHPPLVNLSVEPQPVLEDNIVTFHCSAKANPAVTQYRWAKRGHIIKEASGELYRTTVDYTYFSEPVSCEVTNALGSTNLSRTVDVYFGPRMTSEPQSLLVDLGSDAVFSCAWIGNPSLTIVWMKRGSGVVLSNEKTLTLKSVRQEDAGKYVCRAVVPRVGAGEREVTLTVNGPPIISSTQTQHALHGEKGQIKCFIRSTPPPDRIAWSWKENVLESGTSGRYTVETVNTEEGVISTLTISNIVRADFQTIYNCTAWNSFGSDTEIIRLKEQGSEMKSGAGLEAESVPMA	–	> 0.001	210	2
mouse Kirrel3 D1 (domain or fragment) VYSFSQQPQDQVVVSGQPVTLLCAIPEYDGFVLWIKDGLALGVGRDLSSYPQYLVVGNHLSGEHHLKILRAELQDDAVYECQAIQAAIRSRPARLTVLVP	binds	–	–	–
